Publication PMC9669022

Key:
[1] = molecular target: porcine brain tubulin (αβ-tubulin dimer) (porcine) (UniProt Q2XVP4)
[2] = molecular target: porcine brain tubulin (αβ-tubulin dimer) (porcine) (UniProt Q2XVP4); remark: listed apart in the source
[3] = molecular target: porcine brain tubulin (αβ-tubulin dimer) (porcine) (UniProt Q2XVP4); remark: listed apart in the source

## Pbkinesin-8B-MD (domain or fragment)
[1]
  Km of the tubulin-stimulated ATPase (unpolymerised tubulin dimer, NADH-coupled assay): 7.6 µM
[2]
  Km of the MT-stimulated ATPase (GMPCPP-MTs, NADH-coupled assay): 2.5 µM

## Pbkinesin-8B-MD-L2^KIF5B (domain or fragment)
[3]
  Km of the GMPCPP-MT-stimulated ATPase, fold change against WT: 2 fold

## Pbkinesin-8B-MD-L12^KIF5B (domain or fragment)
[3]
  KmMT of the GMPCPP-MT-stimulated ATPase, fold change against WT: 20 fold
